Data taken from the supplement of paper PMC9170038.

Columns and labels:
[1] = system: MS2 coat protein; experiment: apparent KD of MS2 coat protein; designed switch direction (-1 OFF switch, 1 ON switch): 1; higher = weaker reporter binding
Procedure, shortened: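 Stalled E. coli RNA polymerase transcribed designed RNA switches on Illumina chips, which were then titrated with SNAP-549-labelled MS2 coat protein, doubling from 0.7 or 1.5 nM to 3 µM. Steps lasted from 0.8–1.5 h at the lowest concentration to 10–20 min at the highest. The apparent KD is each design's median over clusters of curve-fitted normalised fluorescence.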

[2] = system: MS2 coat protein; experiment: apparent KD of MS2 coat protein; higher = weaker reporter binding; settings: Eterna round: R107
Procedure, shortened: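 Illumina sequencing clusters served as templates for on-chip transcription of the designed RNA switches. SNAP-549-labelled MS2 coat protein was then titrated in twofold steps from 0.7 or 1.5 nM to 3 µM, allowing 0.8–1.5 h per step at first and 10–20 min per step later. The buffer held 100 mM Tris-HCl pH 7.5, 80 mM KCl and 4 mM MgCl2, without or with constant ligand. Apparent KD is the median per design of normalised cluster binding-curve fits.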

[3] = input ligand: microRNA oligo, concentration not stated
[4] = Eterna round: R95, input ligand: FMN 200 uM
[5] = Eterna round: R95, input ligand: microRNA oligo, concentration not stated
[6] = Eterna round: R95, input ligand: none
[7] = input ligand: theophylline 20 uM
[8] = input ligand: theophylline 2 mM
[9] = input ligand: tryptophan 2.4 mM

## AAAAAACAUGAGGAUCACCCAUGUCGAAAGACAUGAGGAUAUGUGUGGAAACCAUACUAUACAGAAGGCAUAAAAA [SS1 - 1009] (Eterna round: R96, puzzle: Same State 1)
[1]; input ligand: FMN 200 uM
  apparent KD of MS2 coat protein: 60.6 nM
[1]; [3]
  apparent KD of MS2 coat protein: 137 nM
[1]; input ligand: none
  apparent KD of MS2 coat protein: 96.8 nM

## AAAAGAAACAUGUACCUGAGUACAUGAAAACAUGAGGAUCACCCAUGUAACAAGUUGGGUGUUUGUCUUAUAAGAAA [JL pocket 5] (Eterna round: R96, puzzle: Sensor for hsa-mir-208a)
[1]; input ligand: FMN 200 uM
  apparent KD of MS2 coat protein: 68.7 nM
[1]; [3]
  apparent KD of MS2 coat protein: 238 nM
[1]; input ligand: none
  apparent KD of MS2 coat protein: 231 nM

## AAAAGACAUGAGGAUCACCCAUGUACCAGGUCCACAGGAUAUCAUGCGUGGUUGAAUUCAUGAGAAGGGUGAGACA [Getied] (puzzle: Same State 1)
[1]; [4]
  apparent KD of MS2 coat protein: 48.7 nM
[1]; [5]
  apparent KD of MS2 coat protein: 188 nM
[1]; [6]
  apparent KD of MS2 coat protein: 311 nM

## AAAAGACAUGAGGAUCACCCAUGUAUGAAAAGUACAGGAUAUCACGAGCUAAAGUGCGAGUGAGAAGGGUGAAAAU [Araceesge] (puzzle: Same State 1)
[1]; [4]
  apparent KD of MS2 coat protein: 60.9 nM
[1]; [5]
  apparent KD of MS2 coat protein: 41.9 nM
[1]; [6]
  apparent KD of MS2 coat protein: 37.1 nM

## AAAAGUUGCGGGCAGGAUAUGUAUUAAAAUACAUGAGGAUCACCCAUGUGCGGGUAUAACACCCGACAGAAGGGCCAAACGCGAC [Mat - Same State 2 - Mod of UCT - D96] (puzzle: Same State 2)
[1]; [4]
  apparent KD of MS2 coat protein: 27.4 nM
[1]; [5]
  apparent KD of MS2 coat protein: 178 nM
[1]; [6]
  apparent KD of MS2 coat protein: 333 nM

## AAACAUGAGGAUCACCCAUGUCGAUUAAAACCCUAAUCUACUCAGGAUAUCCGAAUGCGCGUUUCGGAGAAGGGAGAAAUGUGA [Isessoreri] (Eterna round: R96, puzzle: Same State NG 3)
[1]; input ligand: FMN 200 uM
  apparent KD of MS2 coat protein: 27 nM
[1]; [3]
  apparent KD of MS2 coat protein: 37.5 nM
[1]; input ligand: none
  apparent KD of MS2 coat protein: 31.7 nM

## AAACGGCCCAACGAAGGGCCACAUGAGGAUCACCCAUGUACAUAGGAUAUCACGCCAACAAAGCGUGAGAAGGGUGAUUAAAAC [Lezaer] (Eterna round: R96, puzzle: Same State NG 3)
[1]; input ligand: FMN 200 uM
  apparent KD of MS2 coat protein: 270 nM
[1]; [3]
  apparent KD of MS2 coat protein: 11.6 nM
[1]; input ligand: none
  apparent KD of MS2 coat protein: 163 nM

## AAAGAAACAUGAGGAUCACCCAUGUACCGCGGAAUGUGUGCACAGGAUAUGUACAGCUUUUGCUUACAGAAGGGUGCGCCCGUG [Enorso] (Eterna round: R96, puzzle: Same State NG 3)
[1]; input ligand: FMN 200 uM
  apparent KD of MS2 coat protein: 20.8 nM
[1]; [3]
  apparent KD of MS2 coat protein: 38.7 nM
[1]; input ligand: none
  apparent KD of MS2 coat protein: 70 nM

## AAAGAUGGACAUGAGGAUCACCCAUGUGGAAAGUGAACAAGCUUUUGCUCGUGACAAAUGAACAAUCCAAUCCUAAA [mksensor] (puzzle: Sensor for hsa-mir-208a version 2)
[1]; [4]
  apparent KD of MS2 coat protein: 26.3 nM
[1]; [5]
  apparent KD of MS2 coat protein: 24.5 nM
[1]; [6]
  apparent KD of MS2 coat protein: 25 nM

## AAAGGAUGAUGUUACAUGAGGAUCACCCAUGUUGUGAUAACUAAGGAUAUGUGUUUAACCAGUUAAUAGAAGGUAGGAUCAUAA [AK SSNG3-V2-4] (Eterna round: R96, puzzle: Same State NG 3)
[1]; input ligand: FMN 200 uM
  apparent KD of MS2 coat protein: 168 nM
[1]; [3]
  apparent KD of MS2 coat protein: 97.4 nM
[1]; input ligand: none
  apparent KD of MS2 coat protein: 124 nM

## AACAAUCUAUCUGAGGAUAUCAUGAAAUAAACAUGAGGAUCACCCAUGUGCAGGAUAACUGCAUAUGAGAAGGCAGAUAGAUUGA [salish99_ss2_r3_041] (puzzle: Same State 2)
[1]; [4]
  apparent KD of MS2 coat protein: 57.3 nM
[1]; [5]
  apparent KD of MS2 coat protein: 661 nM
[1]; [6]
  apparent KD of MS2 coat protein: 656 nM

## AACACACAUGAGGAUCACCCAUGUACCGAAAUCACAGGAUAUACAUAACUGAAUAACAUUGUAGAAGGGUGGCCGG [Enorerteso] (puzzle: Same State 1)
[1]; [4]
  apparent KD of MS2 coat protein: 23.7 nM
[1]; [5]
  apparent KD of MS2 coat protein: 65.7 nM
[1]; [6]
  apparent KD of MS2 coat protein: 91.4 nM

## AACAGUCGGCGAGGAUAUGGACGGACAGGCUUGCCUGUGCGGCUCACAUGAGGAUCACCCAUGUUCUAGAAGGCGCCACUGAGA [Atteve] (Eterna round: R96, puzzle: Same State NG 2)
[1]; input ligand: FMN 200 uM
  apparent KD of MS2 coat protein: 21.3 nM
[1]; [3]
  apparent KD of MS2 coat protein: 50 nM
[1]; input ligand: none
  apparent KD of MS2 coat protein: 81.7 nM

## AACAGUCGGCGAGGAUAUGGACGUACGGACUAACCCAUACGGCUCACAUGAGGAUCACCCAUGUUCUAGAAGGCGCCACUGAAA [Soisce] (Eterna round: R96, puzzle: Same State NG 2)
[1]; input ligand: FMN 200 uM
  apparent KD of MS2 coat protein: 18.1 nM
[1]; [3]
  apparent KD of MS2 coat protein: 22.8 nM
[1]; input ligand: none
  apparent KD of MS2 coat protein: 66.7 nM

## AACUAUCUAUCUCAGGAUAUCAUGUCAAAGACAUGAGGAUCACCCAUGUACCAGGAAACUGGUUAUGAGAAGGGAGAUAGAUAGA [Mat - Same State 2 - Mod - D38] (puzzle: Same State 2)
[1]; [4]
  apparent KD of MS2 coat protein: 92.5 nM
[1]; [5]
  apparent KD of MS2 coat protein: 87.7 nM
[1]; [6]
  apparent KD of MS2 coat protein: 97 nM

## UUAUUUAACGGAAGGAGCGCGGAAAUUAAGGUGGGUAAACAUGAGGAUCACCCAUGUAAUCCGCAGGUAGGUCGCCGAUAUUUAU [#24 Exclusion - Arginine B]
[2]; input ligand: arginine 13.2 mM
  apparent KD of MS2 coat protein: 86.1 nM
[2]; input ligand: none
  apparent KD of MS2 coat protein: 156 nM
[2]; [7]
  apparent KD of MS2 coat protein: 136 nM
[2]; [8]
  apparent KD of MS2 coat protein: 119 nM
[2]; [9]
  apparent KD of MS2 coat protein: 112 nM

## UUCGUUUACGGAAGGAGCGACGGACAUCGGUGAUCUAUGCACAUGAGGAUCACCCAUGUACGUCAGGUAGGUCGCCGUUAAGAGU [XArg-B28]
[2]; input ligand: arginine 13.2 mM
  apparent KD of MS2 coat protein: 28.4 nM
[2]; input ligand: none
  apparent KD of MS2 coat protein: 80.8 nM
[2]; [7]
  apparent KD of MS2 coat protein: 96.5 nM
[2]; [8]
  apparent KD of MS2 coat protein: 184 nM
[2]; [9]
  apparent KD of MS2 coat protein: 9.59 nM

## UUGAUUACCCAAGCGUGAUGGUCCUAGGAACGAGGACCGGUACGGCCGCCACUCGCAAGCAAACAUGAGGAUCACCCAUGUUUAU [theeternabot_exclusion_MS2_Trp_A_19]
[2]; input ligand: arginine 13.2 mM
  apparent KD of MS2 coat protein: 11.2 nM
[2]; [7]
  apparent KD of MS2 coat protein: 15.9 nM
[2]; [8]
  apparent KD of MS2 coat protein: 14.1 nM

## UUGGCACGGACGGCCGCCACUCUUUCACAUGAGGAUCACCCAUGUUAUCUAGUCCUCAGCAGAAAGAGGACCGGGUCGGAGUUGG [theeternabot_exclusion_MS2_Trp_B_13]
[2]; input ligand: arginine 13.2 mM
  apparent KD of MS2 coat protein: 75.1 nM
[2]; [7]
  apparent KD of MS2 coat protein: 168 nM
[2]; [8]
  apparent KD of MS2 coat protein: 214 nM

## UUGGGUAUGCGAAGGAGCGGGAAAUAUAUAUAUAUAAUCCUAACAUGAGGAUCACCCAUGUCCCAGGUAGGUCGCGCAUAUUUGG [12.J]
[2]; input ligand: arginine 13.2 mM
  apparent KD of MS2 coat protein: 40.6 nM
[2]; input ligand: none
  apparent KD of MS2 coat protein: 62.9 nM
[2]; [7]
  apparent KD of MS2 coat protein: 88.9 nM
[2]; [8]
  apparent KD of MS2 coat protein: 106 nM
[2]; [9]
  apparent KD of MS2 coat protein: 67.8 nM

## UUGGUUAUGCGAAGGAGCGGGAAAUAUAUAUAUAUAAUCCUAACAUGAGGAUCACCCAUGUCCCAGGUAGGUCGCGCAUAGUUGG [12.I]
[2]; input ligand: arginine 13.2 mM
  apparent KD of MS2 coat protein: 45.2 nM
[2]; input ligand: none
  apparent KD of MS2 coat protein: 69.5 nM
[2]; [7]
  apparent KD of MS2 coat protein: 80.3 nM
[2]; [8]
  apparent KD of MS2 coat protein: 83.3 nM
[2]; [9]
  apparent KD of MS2 coat protein: 69.1 nM

## UUUACAUGAGGAUCACCCAUGUGCCAUGAUACCAGACAUGAAAAUGUCCCUUGGCAGCAUGAAUGAUUCAUAGGAUAAUUAUGGG [Obrany]
[2]; input ligand: arginine 13.2 mM
  apparent KD of MS2 coat protein: 69.4 nM
[2]; [7]
  apparent KD of MS2 coat protein: 146 nM
[2]; [9]
  apparent KD of MS2 coat protein: 80.9 nM

## UUUACAUGAGGAUCACCCAUGUGCCAUGAUACCAGACAUGAAAAUGUCCCUUGGCAGCAUGAGUGAUUCAUCCGAAAGGAUGUUU [Jehnice]
[2]; input ligand: arginine 13.2 mM
  apparent KD of MS2 coat protein: 114 nM
[2]; [7]
  apparent KD of MS2 coat protein: 146 nM
[2]; [9]
  apparent KD of MS2 coat protein: 103 nM

## UUUACAUGAGGAUCACCCAUGUUCCAUGAUACCAGACAUGAAAAUGUCCCUUGGCAGCAUGAAUGAUUCAUAGGAUAAUUAUGGG [Medlanky]
[2]; input ligand: arginine 13.2 mM
  apparent KD of MS2 coat protein: 79.7 nM
[2]; [7]
  apparent KD of MS2 coat protein: 116 nM
[2]; [9]
  apparent KD of MS2 coat protein: 72.6 nM

## UUUGAUUAGAGAAGGAGCGUGAUAUUUAUAUAGUGUGUAUGUACAUGAGGAUCACCCAUGUCACAGGUAGGUCGCUCUGAUAAGG [JR_Nu_ExcArginiB_Sub030]
[2]; input ligand: arginine 13.2 mM
  apparent KD of MS2 coat protein: 14.8 nM
[2]; input ligand: none
  apparent KD of MS2 coat protein: 13.2 nM
[2]; [7]
  apparent KD of MS2 coat protein: 21.6 nM
[2]; [8]
  apparent KD of MS2 coat protein: 13.2 nM
[2]; [9]
  apparent KD of MS2 coat protein: 16.1 nM

## UUUUAAGGGAUCGGAGCUGGUAGCAGAGAUACCAGAGUAGUAAUGCUCCCUUGGCAGCUCAGUACAUGAGGAUCACCCAUGUUUU [Exclusion Theophylline A GF26]
[2]; input ligand: arginine 13.2 mM
  apparent KD of MS2 coat protein: 16.3 nM
[2]; input ligand: none
  apparent KD of MS2 coat protein: 17.6 nM
[2]; [7]
  apparent KD of MS2 coat protein: 21 nM
[2]; [8]
  apparent KD of MS2 coat protein: 25.3 nM
[2]; [9]
  apparent KD of MS2 coat protein: 17.9 nM
